Results: article doi:10.1101/2023.05.17.541096 (bioRxiv, 2023)

Target: T1, human FIGNL1ΔN (FIGNL1 without the N-terminal 284 aa) (human, UniProt Q6PIW4 285-674)
T1 sequence: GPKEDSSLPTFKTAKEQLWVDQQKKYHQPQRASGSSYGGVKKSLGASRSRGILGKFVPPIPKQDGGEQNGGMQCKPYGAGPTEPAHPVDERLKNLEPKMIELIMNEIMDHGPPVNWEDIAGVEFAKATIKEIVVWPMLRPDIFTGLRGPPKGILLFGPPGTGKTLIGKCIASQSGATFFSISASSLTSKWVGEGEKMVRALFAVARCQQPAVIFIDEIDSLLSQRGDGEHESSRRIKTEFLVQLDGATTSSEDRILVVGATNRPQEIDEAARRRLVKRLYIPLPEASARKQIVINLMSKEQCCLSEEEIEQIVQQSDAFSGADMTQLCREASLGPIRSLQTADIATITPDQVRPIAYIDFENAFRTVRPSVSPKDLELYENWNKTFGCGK
Test: native gel or EMSA

B1: human RAD51 (natural protein)
chain: MAMQMQLEANADTSVEEESFGPQPISRLEQCGINANDVKKLEEAGFHTVEAVAYAPKKELINIKGISEAKADKILAEAAKLVPMGFTTATEFHQRRSEIIQITTGSKELDKLLQGGIETGSITEMFGEFRTGKTQICHTLAVTCQLPIDRGGGEGKAMYIDTEGTFRPERLLAVAERYGLSGSDVLDNVAYARAFNTDHQTQLLYQASAMMVESRYALLIVDSATALYRTDYSGRGELSARQMHLARFLRMLLRLADEFGVAVVITNQVVAQVDGAAMFAADPKKPIGGNIIAHASTTRLYLRKGRGETRICKIYDSPCLPEAEAMFAINADGVGDAKD
B1: binds.
